Reference: patent publication US20180230200A1 (CITY OF HOPE, published 2018)

Legend:
[1] = target: T1, gH/gL/UL128/UL130/UL131A pentamer complex expressed from MVA-PC in BHK-21 cells (human cytomegalovirus, UniProt P12824 24-743; P16832 31-278; P16837 28-171; P16772 1-214; F5HET4 19-129); assay: FC competition, MVA-PC BHK-21; unlabelled row Ab; competitor: biotinylated 21E9; also: test concentration or dose not given here
T1 construct: whole, on cells

gH of HCMV strain Towne = target: T2, gH of HCMV strain Towne (human cytomegalovirus strain Towne, UniProt P17176 30-742); assay: immunoblot, lysates of HCMV-infected MRC-5
T2 sequence: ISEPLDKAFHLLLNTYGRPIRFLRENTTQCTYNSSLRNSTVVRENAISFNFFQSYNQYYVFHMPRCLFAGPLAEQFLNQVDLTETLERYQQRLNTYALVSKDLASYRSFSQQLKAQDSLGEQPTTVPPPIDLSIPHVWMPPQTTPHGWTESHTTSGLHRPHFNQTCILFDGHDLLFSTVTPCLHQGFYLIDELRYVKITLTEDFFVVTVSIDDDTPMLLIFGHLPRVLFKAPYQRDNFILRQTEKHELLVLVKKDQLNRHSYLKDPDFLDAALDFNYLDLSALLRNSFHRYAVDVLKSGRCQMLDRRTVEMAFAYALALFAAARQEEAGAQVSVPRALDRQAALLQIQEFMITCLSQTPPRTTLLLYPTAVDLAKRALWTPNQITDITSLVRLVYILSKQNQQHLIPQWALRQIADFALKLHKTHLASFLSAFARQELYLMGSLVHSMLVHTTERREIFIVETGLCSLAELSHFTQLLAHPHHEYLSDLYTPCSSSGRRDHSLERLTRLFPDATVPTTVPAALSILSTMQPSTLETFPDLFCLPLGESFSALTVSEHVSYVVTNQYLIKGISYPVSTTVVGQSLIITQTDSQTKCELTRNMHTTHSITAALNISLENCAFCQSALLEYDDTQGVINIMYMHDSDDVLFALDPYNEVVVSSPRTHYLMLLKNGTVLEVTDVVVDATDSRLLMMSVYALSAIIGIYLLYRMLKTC

[2] = target: T1, gH/gL/UL128/UL130/UL131A pentamer …; assay: FC competition, MVA-PC BHK-21; unlabelled row Ab; competitor: biotinylated 13B5
[3] = target: T1, gH/gL/UL128/UL130/UL131A pentamer …; assay: FC competition, MVA-PC BHK-21; unlabelled row Ab; competitor: biotinylated 12E2
[4] = target: T1, gH/gL/UL128/UL130/UL131A pentamer …; assay: FC competition, MVA-PC BHK-21; unlabelled row Ab; competitor: biotinylated 18F10
[5] = target: T1, gH/gL/UL128/UL130/UL131A pentamer …; assay: FC, biotinylated NAb titrated on MVA-PC-infected BHK-21 (cell surface PC)
[6] = target: T1, gH/gL/UL128/UL130/UL131A pentamer …; assay: FC competition, MVA-PC BHK-21; unlabelled row Ab; competitor: biotinylated 1B2
[7] = target: T3, UL128 expressed from MVA in BHK-21 cells (human cytomegalovirus, UniProt P16837 28-171); assay: intracellular FC, MVA-infected BHK-21
T3 construct: whole, on cells
T3 sequence: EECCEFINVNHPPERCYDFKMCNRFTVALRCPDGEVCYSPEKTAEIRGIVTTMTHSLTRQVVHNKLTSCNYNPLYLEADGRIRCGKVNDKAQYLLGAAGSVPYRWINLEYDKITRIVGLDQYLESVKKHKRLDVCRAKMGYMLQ

[8] = target: T4, UL128/UL131A co-expressed from MVA in BHK-21 cells (human cytomegalovirus, UniProt P16837 28-171; F5HET4 19-129); assay: intracellular FC, MVA-infected BHK-21
T4 construct: whole, on cells

[9] = target: T5, UL128/UL130 co-expressed from MVA in BHK-21 cells (human cytomegalovirus, UniProt P16837 28-171; P16772 1-214); assay: intracellular FC, MVA-infected BHK-21
T5 construct: whole, on cells

[10] = target: T6, UL130 expressed from MVA in BHK-21 cells (human cytomegalovirus, UniProt P16772 1-214); assay: intracellular FC, MVA-infected BHK-21
T6 construct: whole, on cells

[11] = target: T7, UL131A expressed from MVA in BHK-21 cells (human cytomegalovirus, UniProt F5HET4 19-129); assay: intracellular FC, MVA-infected BHK-21
T7 construct: whole, on cells

[12] = target: T8, UL130/UL131A co-expressed from MVA in BHK-21 cells (human cytomegalovirus, UniProt P16772 1-214; F5HET4 19-129); assay: intracellular FC, MVA-infected BHK-21
T8 construct: whole, on cells

[13] = target: T9, UL128/UL130/UL131A co-expressed from MVA in BHK-21 cells (human cytomegalovirus, UniProt P16837 28-171; P16772 1-214; F5HET4 19-129); assay: intracellular FC, MVA-infected BHK-21
T9 construct: whole, on cells

[14] = target: T1, gH/gL/UL128/UL130/UL131A pentamer …; assay: FC competition, MVA-PC BHK-21; unlabelled row Ab; competitor: biotinylated AP86; also: test concentration or dose not given here

B1: 18F10 (antibody, V domains shown)
VH: QVTLKESGPGILQPSQTLSLTCSFSGFSLSTYGIGIGWIRQPSGKGLEWLAHIWWNDNKNYNTALKSRLTISKDPSNNQVFLKIASVDTADTATYFCARTGYFDVWGAGTTVTVSS
VL: DVVLTQTPLSLPVSLGDQVSISCSSSQSLVHSNGNTYIHWYLQKPGQSPKLLIYTVSNRFSGVPDRFSGSGSGTDFTLKISRVEAEDLGLYFCSQSTHVPYTFGGGTKLEIK
notes: also called NAb 18F10
For B1, which “Binding Inhibition (%)” value [1] is on record?
Its value is 0%.

Does B1 bind (gH of HCMV strain Towne)?
Result: no binding (tested: 10 µg/ml)

And the “Binding Inhibition (%)” value [2]?
The value was 0%.

What about the “Binding Inhibition (%)” value [3] of the same binder?
Its value is 0%.

And the “Binding Inhibition (%)” value [4]?
The value was 100%.

What about the EC50 [5] of the same binder?
Its EC50 is 6.5 nM.

What about the “Binding Inhibition (%)” value [6] of the same binder?
Its value is 0%.

Does B1 bind [7]?
Result: no binding

Does B1 bind [8]?
Result: no binding

Does B1 bind [9]?
Result: no binding

Does B1 bind [10]?
Result: no binding

Does B1 bind [11]?
Result: no binding

Does B1 bind [12]?
Result: no binding

Does B1 bind [13]?
Result: no binding

And the “Binding Inhibition (%)” value [14]?
Its value is 100%.
